Laboratory results: publication PMC5445279, “Proanthocyanidin accumulation and transcriptional responses in the seed coat of cranberry beans (Phaseolus vulgaris L.) with different susceptibility to postharvest darkening” (BMC Plant Biology, 2017)
Each block holds one molecule with its values, some of them ahead of it.

Tests used:
PvANR1 = biological target: T1, PvANR1 (Phaseolus vulgaris, UniProt A0A1V0E4B3); assay: HPLC-DAD of epicatechin formation, substrate-inhibition fit; assay type: biochemical; settings: substrate inhibition by cyanidin, product epicatechin; 800 μM NADPH, 50 mM HEPES pH 7.0, 30 °C; apparent
T1 construct: gene ANR1; full ORF (1014 bp PCR product) from seed coat cDNA, pET-30b, E. coli BL21; N-terminal His6 tag cut by enterokinase; forward primer encodes MATVKKIGK
Description: (§1) HPLC-DAD of epicatechin formation, substrate-inhibition fit on PvANR1

[1] = substrate: NC(=O)C1=CN([C@@H]2O[C@H](COP(=O)(O)OP(=O)(O)OC[C@H]3O[C@@H](n4cnc5c(N)ncnc54)[C@H](OP(=O)(O)O)[C@@H]3O)[C@@H](O)[C@H]2O)C=CC1; assay: HPLC-DAD of epicatechin formation, Hill fit; assay type: biochemical, Phaseolus vulgaris; settings: product epicatechin, 100 μM cyanidin, 50 mM HEPES pH 7.0, 30 °C, Hill coefficient 2.5, varied: cofactor
Description: HPLC-DAD of epicatechin formation, Hill fit on PvANR1

[2] = substrate: Oc1cc(O)c2cc(O)c(-c3ccc(O)c(O)c3)[o+]c2c1; assay: HPLC-DAD of epicatechin formation, substrate-inhibition fit; assay type: biochemical, Phaseolus vulgaris; settings: product epicatechin, 800 μM NADPH, 50 mM HEPES pH 7.0, 30 °C, apparent, substrate inhibition model
Description: as §1

- K i (PvANR1): 631.5 ± 119.9 µM
Molecule: Oc1cc(O)c2cc(O)c(-c3ccc(O)c(O)c3)[o+]c2c1 [cyanidin]

B1: PvANR1 (Phaseolus vulgaris) (protein)
chain: MATVKKIGKKACVIGGSGFMASCLVKQLLHKGYAVNTTVRDPDNAKKISHLLALQSLGDLNIFGADLTGERDFDAPIAGCELVFQLATPVNFASEDPENDMIKPAISGVLNVLKACARAKGVKRVILTSSAAAVTINPVKDTGLVMDESNWTDVEFLNTAKPPTWGYPVSKALAEKAAWKFAEENHIDLITVIPTLTTGPSLTPDIPSSVGLATSLITGNDFLINALKGMQFLSGSISITHVEDICRAHIFVAENESASGRYIVSSHSTSVPELAKFLSKRYPQYKVPTEFDDCPSKAKLTISSEKLVKEGFSFKYGIEEIYDQSVEYLKSKGALKN
notes: full ORF (1014 bp PCR product) from seed coat cDNA, pET-30b, E. coli BL21; N-terminal His6 tag cut by enterokinase; forward primer encodes MATVKKIGK
- K0.5 [1]: 103.5 ± 7.4 µM
- Vmax [1]: 0.00334 µmol/min/mg
- kcat [1]: 0.0021 ± 0.0001 s⁻¹
- kcat/Km [1]: 20.1 ± 0.49 M⁻¹ s⁻¹
- K0.5 [2]: 114.2 ± 19.0 µM
- Vmax [2]: 0.0116 µmol/min/mg
- kcat [2]: 0.0072 ± 0.0007 s⁻¹
- kcat/Km [2]: 65.4 ± 13.8 M⁻¹ s⁻¹
